Results published in the supplement of paper PMC10126150.
± gives the standard deviation of the averaged measurements.

test system: ATP; test: switch fluorescence ratio, 500 uM ATP over buffer (Cy3 cluster intensity, sum of 5 cycles each) (fold (ratio)); higher = stronger signal-on switching upon ATP binding; sequences stand for … in TCGTCGGCAGCGTCAGATGTGTATAAGAGACAGTTTTTTTTTTTTTTTTTTTTTTTTT…TC; details: aptamer strand: ATP DNA aptamer (quencher-CACCTGGGGGAGTATTGCGGAGGAAGG + anchor), 100 nM annealed; ATP concentration: 500 uM
Method in brief: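 The fluorescence ratio divides summed target-cycle Cy3 intensity by summed buffer-cycle Cy3 intensity for each cluster and is averaged per switch-domain sequence. Cy3-labelled switching-strand clusters on a modified Illumina MiSeq flow-cell were annealed to 100 nM quencher-labelled ATP aptamer, then imaged in selection buffer and again after 15 min with 500 uM ATP at 22 °C. Five such cycles were run, with NaOH stripping and re-annealing between them, and clusters outside 100-1000 RFU were excluded.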
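Also: ATP exposure 15 min at 22 °C before imaging.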

| Sequence | switch fluorescence ratio |
| --- | --- |
| TGTTTTATGG | 0.9871 ± 0.008 |
| TGCTGAGTTT | 1.01 ± 0.05 |
| TACGGGGTTT | 0.996 ± 0.051 |
| GTGACTCCGA | 1.78 ± 0.12 |
| TATTGCCGGG | 0.985 ± 0.036 |
| TTCGTTATAG | 1.01 ± 0.044 |
| ACAATGGGTA | 1.03 ± 0.024 |
| GATGTATTTT | 0.9823 ± 0.004 |
| TAGATGAGAG | 0.969 ± 0.012 |
| TATGGTCTTT | 0.979 ± 0.019 |
| TATACGGCAT | 1.119 ± 0.0049 |
| TGTGGGTTAT | 0.976 ± 0.011 |
| CATTGGAGGA | 1.018 ± 0.0011 |
| TCGAGTTG | 0.9972 ± 0.0093 |
| GAGGGTGTGG | 1.02 ± 0.022 |
| GAGACTTGGG | 1.03 ± 0.029 |
| TTTTGAGGGC | 1.01 ± 0.059 |
| GATGTAAAGG | 0.9891 ± 0.006 |
| AAAGTATTTG | 1.01 ± 0.05 |
| TATTCTGCTA | 1.02 ± 0.024 |
| GACTTTTCCT | 1.3 ± 0.41 |
| GGGGTCCTTA | 1 ± 0.018 |
| AGGTCGGCTT | 1.006 ± 0.0024 |
| GAGGGGAGCG | 0.969 ± 0.043 |
| CGGAGCTCTG | 1.06 ± 0.015 |

| Sequence | switch fluorescence ratio |
| --- | --- |
| GGAACTGCTG | 1.04 ± 0.029 |
| AAATGGGTGG | 0.997 ± 0.025 |
| GGATTCAAAG | 0.993 ± 0.015 |
| TTCAAATGGA | 0.991 ± 0.041 |
| TGTTGCTTAA | 0.993 ± 0.019 |
| ATAGTATAAG | 1.002 ± 0.0073 |
| AGCGAGACGT | 1.12 ± 0.034 |
| AAAAGGTTTT | 1 ± 0.033 |
| GAAGTAGTCG | 1.06 ± 0.017 |
| GGGGTAGAAG | 1.004 ± 0.0016 |
| CTCTTTCTAC | 2.05 ± 1.3 |
| GCATTCGATG | 0.981 ± 0.013 |
| TAAGGCTGAA | 1.02 ± 0.039 |
| TAGGTTACCC | 1.04 ± 0.046 |
| TTCAAATGAA | 1 ± 0.016 |
| AGTTTTTTAG | 0.98 ± 0.015 |
| CAAGATTTAT | 0.99 ± 0.023 |
| TACAGAAGCG | 1.033 ± 0.0073 |
| GAGTGCTCGA | 1.01 ± 0.074 |
| TAAAGGGTG | 1.08 ± 0.037 |
| CTTTTTTGCC | 1.02 ± 0.019 |
| CTTGTGAAA | 1.009 ± 0.0082 |
| GATTATGATT | 0.971 ± 0.013 |
| AGTTTAATTA | 0.971 ± 0.051 |
| AACGTTGCCC | 1.01 ± 0.025 |

| Sequence | switch fluorescence ratio |
| --- | --- |
| TTGGCGGCTT | 1.02 ± 0.032 |
| GGATATGTTG | 0.994 ± 0.019 |
| CAGTTCTCTA | 0.981 ± 0.0068 |
| ACATTTTACT | 1.12 ± 0.014 |
| AGTGGGGAGC | 0.978 ± 0.031 |
| GTTTAAGGGC | 0.988 ± 0.032 |
| GGCATCGAAG | 1 ± 0.027 |
| CACGTGTTGC | 1.04 ± 0.03 |
| GTTGGTATTT | 0.971 ± 0.023 |
| GTTTGGAGGA | 0.96 ± 0.024 |
| GGTTTAAAGT | 1.01 ± 0.014 |
| CTGTTTAAGT | 1.005 ± 0.0073 |
| ATCAGGGTGC | 1.06 ± 0.051 |
| CATAGCTGTG | 1.01 ± 0.026 |
| CTGGGGGGTA | 0.997 ± 0.028 |
| GAAAAAGCAA | 1.14 ± 0.054 |
| TGATGTCTAG | 0.967 ± 0.021 |
| TTTATTAGTT | 0.998 ± 0.025 |
| GGGGACGGAT | 1.04 ± 0.052 |
| TGTGGTTTGA | 1.01 ± 0.043 |
| GTGTTCAAGG | 0.971 ± 0.015 |
| TTACTTTTAC | 1.13 ± 0.14 |
| TGTACGACGG | 1.02 ± 0.023 |
| TCAAGATTAT | 0.994 ± 0.027 |
| GGGAGCCCGG | 0.989 ± 0.038 |

| Sequence | switch fluorescence ratio |
| --- | --- |
| GGGCATATGG | 1.05 ± 0.015 |
| TTGTTTGTCC | 1.03 ± 0.058 |
| AAATTAGATG | 1.009 ± 0.0051 |
| GTATGGGGCA | 1 ± 0.029 |
| TATTTAGTAT | 0.99 ± 0.045 |
| ATTGTGAGGG | 0.993 ± 0.011 |
| GTGGTTTTAT | 0.979 ± 0.013 |
| AAATGGTTGT | 1.01 ± 0.02 |
| GGGGGACTTA | 0.998 ± 0.043 |
| TTTTGAGCAC | 1.16 ± 0.26 |
| AGGAATCTAG | 0.967 ± 0.03 |
| TGTTCTCGGA | 1.006 ± 0.0097 |
| AATTTTTCTG | 0.9869 ± 0.008 |
| AATGAAATAG | 0.998 ± 0.0061 |
| CTGTAAGGTG | 1.83 ± 1 |
| TCGACAGTCC | 1.037 ± 0.0085 |
| GGCGCCGGCT | 0.992 ± 0.079 |
| TGAGGTGTTT | 0.992 ± 0.023 |
| GAATTCCAGT | 0.9968 ± 0.0076 |
| GGGGTTGGTC | 1.04 ± 0.048 |
| TTATCTGTTT | 1.02 ± 0.028 |
| TGTTGGGACT | 1.17 ± 0.24 |
| TGAAGTTTAC | 2.03 ± 1.4 |
| ACATTGGTAT | 1 ± 0.011 |
| CGAGACGTAT | 1.09 ± 0.042 |
